Values belong to the binder of their own block, whether it stands above or below them.
What was measured:
[1] = target: T1, TFIIIC subcomplex τA (τ131, τ95, τ55) (S. cerevisiae, UniProt P33339 1-1025; P32367 1-649; Q12415 1-435); assay: co-sedimentation; 10–30% glycerol gradient without crosslinker, equimolar τA and Brf1–TBPΔN, 75 mM NaCl at mixing, 100 mM NaCl, 20 mM HEPES pH 7.5, 5 mM DTT in the gradient, 16 h at 150,000 x g; fractions on SDS–PAGE, silver stain; apparent stoichiometry; conditions: both partners purified
T1 construct: τ131, subunit of S. cerevisiae TFIIIC subcomplex τA; insect cell codon-optimized gene; τ95, subunit of S. cerevisiae TFIIIC subcomplex τA; τ55, subunit of S. cerevisiae TFIIIC subcomplex τA; No TEV cleavage of the his-tag is described in the purification; also called wt τA; full-length τA; source: Hi5 insect cells, subunits co-expressed by baculovirus, purified (Ni-NTA, heparin, MonoQ, Superose …)
T1 sequence (P33339 whole entry, chain 1 of 3): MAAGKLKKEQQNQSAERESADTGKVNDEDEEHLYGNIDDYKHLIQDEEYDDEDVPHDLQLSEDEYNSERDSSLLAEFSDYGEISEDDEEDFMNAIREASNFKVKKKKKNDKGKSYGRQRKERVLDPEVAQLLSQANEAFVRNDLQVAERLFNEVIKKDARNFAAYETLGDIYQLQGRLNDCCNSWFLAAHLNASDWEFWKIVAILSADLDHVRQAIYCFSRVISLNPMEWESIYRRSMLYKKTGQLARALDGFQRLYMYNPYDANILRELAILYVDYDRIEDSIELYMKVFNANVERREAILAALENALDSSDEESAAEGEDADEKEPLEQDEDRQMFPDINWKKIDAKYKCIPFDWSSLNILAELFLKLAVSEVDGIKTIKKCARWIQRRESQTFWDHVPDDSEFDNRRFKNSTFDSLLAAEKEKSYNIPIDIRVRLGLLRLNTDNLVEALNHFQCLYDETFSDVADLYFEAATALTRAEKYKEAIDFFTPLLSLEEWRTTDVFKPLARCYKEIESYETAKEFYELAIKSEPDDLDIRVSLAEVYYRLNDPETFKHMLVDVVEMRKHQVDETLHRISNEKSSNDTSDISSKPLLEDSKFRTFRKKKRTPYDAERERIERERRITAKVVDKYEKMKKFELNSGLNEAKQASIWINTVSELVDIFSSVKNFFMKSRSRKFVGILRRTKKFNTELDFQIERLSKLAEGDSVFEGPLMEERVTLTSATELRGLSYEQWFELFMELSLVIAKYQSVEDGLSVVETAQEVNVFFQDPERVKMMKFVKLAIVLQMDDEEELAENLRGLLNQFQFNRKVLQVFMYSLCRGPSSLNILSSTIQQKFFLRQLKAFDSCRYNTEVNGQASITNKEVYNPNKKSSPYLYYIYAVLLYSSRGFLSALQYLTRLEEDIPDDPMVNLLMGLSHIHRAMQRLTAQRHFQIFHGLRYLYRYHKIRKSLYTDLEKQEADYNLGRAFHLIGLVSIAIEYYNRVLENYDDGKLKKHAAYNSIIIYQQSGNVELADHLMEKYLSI
T1 sequence (P32367 whole entry, chain 2 of 3): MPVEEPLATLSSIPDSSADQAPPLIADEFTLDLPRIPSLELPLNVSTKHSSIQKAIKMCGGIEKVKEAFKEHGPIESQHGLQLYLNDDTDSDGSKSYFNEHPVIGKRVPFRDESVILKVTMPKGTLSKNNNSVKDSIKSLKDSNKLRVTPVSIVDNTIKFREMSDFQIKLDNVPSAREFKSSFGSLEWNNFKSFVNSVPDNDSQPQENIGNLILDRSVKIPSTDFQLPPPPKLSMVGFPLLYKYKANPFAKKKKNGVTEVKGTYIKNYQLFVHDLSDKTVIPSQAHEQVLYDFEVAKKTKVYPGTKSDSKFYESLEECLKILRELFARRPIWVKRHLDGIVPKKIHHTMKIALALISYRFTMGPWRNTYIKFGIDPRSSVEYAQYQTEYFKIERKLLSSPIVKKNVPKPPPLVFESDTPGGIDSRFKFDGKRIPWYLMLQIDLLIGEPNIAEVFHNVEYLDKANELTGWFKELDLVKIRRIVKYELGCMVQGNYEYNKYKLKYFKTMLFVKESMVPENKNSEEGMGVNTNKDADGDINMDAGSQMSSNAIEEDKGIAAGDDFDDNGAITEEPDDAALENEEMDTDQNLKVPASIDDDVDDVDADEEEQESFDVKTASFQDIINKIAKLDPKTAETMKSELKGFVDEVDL
T1 sequence (Q12415 whole entry, chain 3 of 3): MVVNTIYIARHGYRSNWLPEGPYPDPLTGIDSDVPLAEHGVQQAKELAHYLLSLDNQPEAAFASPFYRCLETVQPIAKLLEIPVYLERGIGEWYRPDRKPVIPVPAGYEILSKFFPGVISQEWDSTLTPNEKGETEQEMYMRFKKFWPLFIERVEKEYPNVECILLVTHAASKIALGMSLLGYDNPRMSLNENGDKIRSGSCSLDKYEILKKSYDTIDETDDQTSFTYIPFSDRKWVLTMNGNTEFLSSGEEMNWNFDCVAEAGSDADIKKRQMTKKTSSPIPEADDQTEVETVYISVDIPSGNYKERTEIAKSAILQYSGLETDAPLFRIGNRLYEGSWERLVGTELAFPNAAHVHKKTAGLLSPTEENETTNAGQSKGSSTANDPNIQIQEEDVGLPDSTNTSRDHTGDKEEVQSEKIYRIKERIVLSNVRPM

[2] = target: holo-TFIIIC Δtail (τ95Δtail) (Saccharomyces cerevisiae, UniProt P33339;P32367;Q12415;P34111;Q06339;Q12308 1-1025;1-592;1-435;1-1160;1-672;1-588); assay: EMSA; 0.5 uM DNA; tail deletion has only a mild effect; τA EMSA: 100 mM NaCl, 20 mM HEPES pH 7.5, 5 mM DTT, 1 h on ice, 10% glycerol added before loading; TFIIIC EMSA: 1 h on ice, buffer not restated; 3-8% Tris-acetate gel in 2.5 mM Tris base, 19 mM glycine, 1 mM DTT; conditions: protein: recombinant; tags: N-terminal TEV-cleavable His tag on τ95; C-terminal TEV-cleavable TwinStrep on τ138; copies: 1;1;1;1;1;1; label: 6FAM at 3' end of non-template strand
τA Δplug (τ95Δplug) = τA Δplug (τ95Δplug) (Saccharomyces cerevisiae, UniProt P33339;P32367;Q12415 1-1025;1-521;1-435); assay: EMSA; 1-10 uM protein, 1 uM DNA; much stronger than wt, weaker than Δtail; τA EMSA: 100 mM NaCl, 20 mM HEPES pH 7.5, 5 mM DTT, 1 h on ice, 10% glycerol added before loading; TFIIIC EMSA: 1 h on ice, buffer not restated; 3-8% Tris-acetate gel in 2.5 mM Tris base, 19 mM glycine, 1 mM DTT; conditions: protein: recombinant; tags: N-terminal TEV-cleavable His tag on τ95; copies: 1;1;1; label: 6FAM at 3' end of non-template strand
Sequence of τA Δplug (τ95Δplug) (P33339 whole entry, stated change not applied, chain 1 of 3): as the sequence (P33339 whole entry, chain 1 of 3) above
Sequence of τA Δplug (τ95Δplug) (P32367 1-521, stated change not applied, chain 2 of 3): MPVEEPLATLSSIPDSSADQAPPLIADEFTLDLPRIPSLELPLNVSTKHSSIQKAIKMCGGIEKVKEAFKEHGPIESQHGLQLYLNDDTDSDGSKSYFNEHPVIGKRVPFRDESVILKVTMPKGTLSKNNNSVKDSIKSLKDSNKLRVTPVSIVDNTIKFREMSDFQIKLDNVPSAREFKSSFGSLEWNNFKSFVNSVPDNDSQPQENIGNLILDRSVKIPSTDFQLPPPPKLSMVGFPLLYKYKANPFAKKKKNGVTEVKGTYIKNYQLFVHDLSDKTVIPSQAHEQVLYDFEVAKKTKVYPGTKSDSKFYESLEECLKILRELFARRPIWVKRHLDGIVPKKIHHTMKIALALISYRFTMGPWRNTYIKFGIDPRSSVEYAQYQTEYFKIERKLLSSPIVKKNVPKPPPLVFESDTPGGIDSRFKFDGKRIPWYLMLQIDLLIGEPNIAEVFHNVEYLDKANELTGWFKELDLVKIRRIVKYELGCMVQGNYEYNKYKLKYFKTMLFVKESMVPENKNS
Sequence of τA Δplug (τ95Δplug) (Q12415 whole entry, stated change not applied, chain 3 of 3): as the sequence (Q12415 whole entry, chain 3 of 3) above

τA Δtail (τ95Δtail) = τA Δtail (τ95Δtail) (Saccharomyces cerevisiae, UniProt P33339;P32367;Q12415 1-1025;1-592;1-435); assay: EMSA; 1-10 uM protein, 1 uM DNA; much stronger than wt and stronger than Δplug; τA EMSA: 100 mM NaCl, 20 mM HEPES pH 7.5, 5 mM DTT, 1 h on ice, 10% glycerol added before loading; TFIIIC EMSA: 1 h on ice, buffer not restated; 3-8% Tris-acetate gel in 2.5 mM Tris base, 19 mM glycine, 1 mM DTT; conditions: protein: recombinant; tags: N-terminal TEV-cleavable His tag on τ95; copies: 1;1;1; label: 6FAM at 3' end of non-template strand
Sequence of τA Δtail (τ95Δtail) (P33339 whole entry, stated change not applied, chain 1 of 3): as the sequence (P33339 whole entry, chain 1 of 3) above
Sequence of τA Δtail (τ95Δtail) (P32367 1-592, stated change not applied, chain 2 of 3): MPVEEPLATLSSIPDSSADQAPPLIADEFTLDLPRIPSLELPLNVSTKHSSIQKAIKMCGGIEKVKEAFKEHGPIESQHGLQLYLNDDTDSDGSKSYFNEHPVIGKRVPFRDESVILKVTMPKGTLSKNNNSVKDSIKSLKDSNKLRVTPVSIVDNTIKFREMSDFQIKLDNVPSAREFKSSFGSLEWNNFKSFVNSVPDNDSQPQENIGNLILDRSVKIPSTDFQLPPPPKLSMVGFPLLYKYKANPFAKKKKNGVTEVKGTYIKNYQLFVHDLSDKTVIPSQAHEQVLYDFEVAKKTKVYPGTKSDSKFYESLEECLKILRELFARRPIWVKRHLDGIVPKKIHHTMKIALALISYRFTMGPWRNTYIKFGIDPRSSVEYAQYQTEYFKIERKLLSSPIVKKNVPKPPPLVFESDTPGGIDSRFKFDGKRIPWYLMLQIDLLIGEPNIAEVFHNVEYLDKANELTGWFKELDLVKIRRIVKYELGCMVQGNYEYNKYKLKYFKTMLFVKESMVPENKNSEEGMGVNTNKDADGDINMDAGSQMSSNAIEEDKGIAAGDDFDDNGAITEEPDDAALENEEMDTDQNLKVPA
Sequence of τA Δtail (τ95Δtail) (Q12415 whole entry, stated change not applied, chain 3 of 3): as the sequence (Q12415 whole entry, chain 3 of 3) above

stoichiometry N [1]: 1
B1: Brf1–TBP construct lacking the first 70 amino acids (Zn-ribbon and linker) (other)
chain: SALESREATLNNARRKLRAVSYALHIPEYITDAAFQWYKLALANNFVQGRRSQNVIASCLYVACRKEKTHHMLIDFSSRLQVSVYSIGATFLKMVKKLHITELPLADPSLFIQHFAEKLDLADKKIKVVKDAVKLAQRMSKDWMFEGRRPAGIAGACILLACRMNNLRRTHTEIVAVSHVAEETLQQRLNEFKNTKAAKLSVQKFRENDVEDGEARPPSFVKNRKKERKIKDSLDKEEMFQTSEEALNKNPILTQVLGEQELSSKEVLFYLKQFSERRARVVERIKATNGIDGENIYHEGSENETRKRKLSESGIVPTLQNIVATVTLGCRLDLKTVALHARNAEYNPKRFAAVIMRIREPKTTALIFASGKMVVTGAKSEDDSKLASRKYARIIQKIGFAAKFTDFKIQNIVGSCDVKFPIRLEGLAFSHGTFSSYEPELFPGLIYRMVKPKIVLLIFVSGKIVLTGAKQREEIYQAFEAIYPVLSEFRKMPRNLHLLPTTDTYLSKVSDDPDNLEDVDDEELNAHLLNEEASKLKERIWIGLNADFLLEQESKRLKQEADIATGNTSVKKKRTRRRNNTRSDEPTKTVDAAAAIGLMSDLQDKSGLHAALKAAEESGDFTTADSVKNMLQKASFSKKINYDAIDGLFR

B2: His_Abox_Bbox (dsDNA)
DNA 1: CATCTTAGTATAGTGGTTAGTACACATCGTTGTGGCCGATGAAACCCTGGTTCGATTCTAGG
DNA 2: CCTAGAATCGAACCAGGGTTTCATCGGCCACAACGATGTGTACTAACCACTATACTAAGATG
binding result [2]: binds

B3: His_Abox (dsDNA)
DNA 1: CATCTTAGTATAGTGGTTAGT
DNA 2: ACTAACCACTATACTAAGATG
binding result (τA Δplug (τ95Δplug)): binds
binding result (τA Δtail (τ95Δtail)): binds

From PMC7528018, “Structure of the TFIIIC subcomplex τA provides insights into RNA polymerase III pre-initiation complex formation” (Nature Communications, 2020)
